This is an account of results in patent publication EP4257134A2 (Immunomedics, Inc., dated 2023).

Assay [1] deals with CD74 (invariant chain, Ii) (human) (UniProt P04233). The assay is described as follows: flow cytometry, surface only; Hs746T cells (background 8, GAH-FITC only).
Assay [2] shares this target. The assay is described as follows: flow cytometry, surface and cytoplasmic (permeabilized cells); Hep-G2 (background 5). (Flow cytometry measures light scatter and fluorescence of single cells or particles in a stream.)
Assay [3] shares this target. The assay is described as follows: flow cytometry, surface and cytoplasmic (permeabilized cells); Hep-G2.
Assay [4] has the same target. The assay is described as follows: flow cytometry, surface only; HuH-7 cells.
Assay [5] shares this target. As to the kind of experiment: flow cytometry, surface and cytoplasmic (permeabilized cells); Raji (background 5).
Assay [6] has the same target. The assay is described as follows: flow cytometry, surface only; HuH-7 cells (background 5, GAH-FITC only).
For assay [7] the target is unchanged. The assay is described as follows: cell binding to antigen-positive cells (cell line not given).
For assay [8] the target is unchanged. The assay is described as follows: flow cytometry, surface and cytoplasmic (permeabilized cells); Capan-1 (background 5).
The target is the same in assay [9]. The assay is described as follows: flow cytometry, surface and cytoplasmic (permeabilized cells); NCI-N87.
The target is the same in assay [10]. The assay is described as follows: flow cytometry, surface only; Hs746T cells.
The target is the same in assay [11]. As to the kind of experiment: flow cytometry, surface and cytoplasmic (permeabilized cells); HuH-7.
For assay [12] the target is unchanged. As to the kind of experiment: flow cytometry, surface and cytoplasmic (permeabilized cells); HuH-7 (background 4).
For assay [13] the target is unchanged. As to the kind of experiment: flow cytometry, surface only; A-375 cells (background 3, GAH-FITC only).
For assay [14] the target is unchanged. The assay is described as follows: flow cytometry, surface only; Capan-1 cells (background 12, GAH-FITC only).
Assay [15] shares this target. The assay is described as follows: flow cytometry, surface only; Raji cells.
Assay [16] shares this target. The assay is described as follows: flow cytometry, surface only; Hep-G2 cells (background 6, GAH-FITC only).
The target is the same in assay [17]. As to the kind of experiment: flow cytometry, surface only; NCI-N87 cells.
For assay [18] the target is unchanged. The assay is described as follows: flow cytometry, surface only; Capan-1 cells.
Assay [19] shares this target. As to the kind of experiment: flow cytometry, surface and cytoplasmic (permeabilized cells); NCI-N87 (background 6).
Assay [20] shares this target. The assay is described as follows: flow cytometry, surface only; NCI-N87 cells (background 4, GAH-FITC only).
For assay [21] the target is unchanged. As to the kind of experiment: flow cytometry, surface and cytoplasmic (permeabilized cells); Hs746T (background 5).
Assay [22] shares this target. The assay is described as follows: flow cytometry, surface and cytoplasmic (permeabilized cells); Raji.
Assay [23] shares this target. As to the kind of experiment: flow cytometry, surface only; Raji cells (background 3, GAH-FITC only).
For assay [24] the target is unchanged. The assay is described as follows: flow cytometry, surface only; Hep-G2 cells.
The target is the same in assay [25]. As to the kind of experiment: flow cytometry, surface and cytoplasmic (permeabilized cells); Capan-1.
For assay [26] the target is unchanged. As to the kind of experiment: flow cytometry, surface only; A-375 cells.
Assay [27] shares this target. The assay is described as follows: flow cytometry, surface and cytoplasmic (permeabilized cells); Hs746T.
For assay [28] the target is unchanged. The assay is described as follows: flow cytometry, surface and cytoplasmic (permeabilized cells); A-375.
For assay [29] the target is unchanged. The assay is described as follows: flow cytometry, surface and cytoplasmic (permeabilized cells); A-375 (background 6).
The target in assay [30] is Human trophoblast cell-surface antigen (Trop-2) (human) (UniProt P09758). The assay is described as follows: cell binding assay on Trop-2-expressing cells.
Assay [31] concerns the target CD22 (human) (UniProt P20273). As to the kind of experiment: flow cytometry with the unconjugated specific antibody, FITC goat anti-human IgG; WSU-FSCCL cells (background 4.9).
For assay [32], the target named is CD22 (human) (UniProt P20273). As to the kind of experiment: flow cytometry with the unconjugated specific antibody, FITC goat anti-human IgG; Raji cells (background 6.8).
Assay [33] has as its target CD22 (human) (UniProt P20273). The assay is described as follows: flow cytometry with the unconjugated specific antibody, FITC goat anti-human IgG; REH cells (background 4.1).
For assay [34], the target named is CD22 (human) (UniProt P20273). As to the kind of experiment: flow cytometry with the unconjugated specific antibody, FITC goat anti-human IgG; 697 cells (background 4.2).
Assay [35] deals with CD22 (human) (UniProt P20273). As to the kind of experiment: flow cytometry with the unconjugated specific antibody, FITC goat anti-human IgG; Daudi cells (background 5.9).
Assay [36] has as its target CD22 (human) (UniProt P20273). As to the kind of experiment: flow cytometry with the unconjugated specific antibody, FITC goat anti-human IgG; RS4;11 cells (background 4.1).
Assay [37] deals with CD22 (human) (UniProt P20273). As to the kind of experiment: flow cytometry with the unconjugated specific antibody, FITC goat anti-human IgG; Jeko-1 cells (background 6.5).
Assay [38] addresses CD22 (human) (UniProt P20273). The assay is described as follows: flow cytometry with the unconjugated specific antibody, FITC goat anti-human IgG; Ramos cells (background 4.1).
Assay [39] concerns the target CD22 (human) (UniProt P20273). The assay is described as follows: flow cytometry with the unconjugated specific antibody, FITC goat anti-human IgG; MN-60 cells (background 5.8).
In assay [40] the target is CEACAM6 (human) (UniProt P40199). As to the kind of experiment: flow cytometry, surface; NCI-N87 cells (staining antibody not given).
Assay [41] shares this target. The assay is described as follows: flow cytometry; Hep-G2 cells.
The target is the same in assay [42]. The assay is described as follows: flow cytometry, surface; HuH-7 cells (staining antibody not given).
Assay [43] deals with CD20 (human) (UniProt P11836). As to the kind of experiment: flow cytometry with the unconjugated specific antibody, FITC goat anti-human IgG; WSU-FSCCL cells (background 4.9).
Assay [44] has as its target CD20 (human) (UniProt P11836). As to the kind of experiment: flow cytometry with the unconjugated specific antibody, FITC goat anti-human IgG; Raji cells (background 6.8).
The target of assay [45] is CD20 (human) (UniProt P11836). As to the kind of experiment: flow cytometry with the unconjugated specific antibody, FITC goat anti-human IgG; REH cells (background 4.1).
In assay [46] the target is CD20 (human) (UniProt P11836). As to the kind of experiment: flow cytometry with the unconjugated specific antibody, FITC goat anti-human IgG; 697 cells (background 4.2).
The target of assay [47] is CD20 (human) (UniProt P11836). As to the kind of experiment: flow cytometry with the unconjugated specific antibody, FITC goat anti-human IgG; Daudi cells (background 5.9).
Assay [48] concerns the target CD20 (human) (UniProt P11836). As to the kind of experiment: flow cytometry with the unconjugated specific antibody, FITC goat anti-human IgG; RS4;11 cells (background 4.1).
Assay [49] concerns the target CD20 (human) (UniProt P11836). The assay is described as follows: flow cytometry with the unconjugated specific antibody, FITC goat anti-human IgG; Jeko-1 cells (background 6.5).
For assay [50], the target named is CD20 (human) (UniProt P11836). As to the kind of experiment: flow cytometry with the unconjugated specific antibody, FITC goat anti-human IgG; Ramos cells (background 4.1).
The target in assay [51] is CD20 (human) (UniProt P11836). As to the kind of experiment: flow cytometry with the unconjugated specific antibody, FITC goat anti-human IgG; MN-60 cells (background 5.8).
The target in assay [52] is T1, Human trophoblast cell-surface antigen (Trop-2) (human, UniProt P09758 27-323).
T1 sequence (looked up): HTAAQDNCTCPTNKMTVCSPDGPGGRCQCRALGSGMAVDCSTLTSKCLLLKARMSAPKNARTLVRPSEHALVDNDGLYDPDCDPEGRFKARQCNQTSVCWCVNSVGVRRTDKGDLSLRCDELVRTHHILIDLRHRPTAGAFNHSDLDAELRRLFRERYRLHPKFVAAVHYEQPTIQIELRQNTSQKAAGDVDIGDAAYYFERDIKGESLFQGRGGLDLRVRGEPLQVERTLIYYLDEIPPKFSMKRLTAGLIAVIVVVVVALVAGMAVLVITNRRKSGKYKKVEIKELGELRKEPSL
The assay is described as follows: cell-based or functional assay.

Usually Kd stands for the constant that tells how readily two partners part at equilibrium.

Sequence of CD74 (invariant chain, Ii) (human) (P04233 whole entry, change not shown): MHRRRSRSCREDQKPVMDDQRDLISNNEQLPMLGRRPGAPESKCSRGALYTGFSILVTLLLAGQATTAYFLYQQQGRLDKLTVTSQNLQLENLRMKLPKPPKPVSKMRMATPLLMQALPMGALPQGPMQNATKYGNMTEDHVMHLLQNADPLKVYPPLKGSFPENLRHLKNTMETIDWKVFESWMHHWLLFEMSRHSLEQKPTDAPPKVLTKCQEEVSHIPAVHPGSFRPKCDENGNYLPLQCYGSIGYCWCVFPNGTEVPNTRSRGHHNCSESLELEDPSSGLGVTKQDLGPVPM
Sequence of CD20 (human) (P11836 whole entry): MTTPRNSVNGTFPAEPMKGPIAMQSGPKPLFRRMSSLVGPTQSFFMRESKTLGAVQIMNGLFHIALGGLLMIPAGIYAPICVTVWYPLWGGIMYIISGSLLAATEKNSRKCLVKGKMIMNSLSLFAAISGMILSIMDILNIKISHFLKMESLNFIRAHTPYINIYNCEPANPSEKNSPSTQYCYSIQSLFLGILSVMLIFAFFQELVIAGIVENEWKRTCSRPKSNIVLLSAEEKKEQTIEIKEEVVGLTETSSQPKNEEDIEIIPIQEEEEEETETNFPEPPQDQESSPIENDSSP
Sequence of CEACAM6 (human) (P40199 35-320): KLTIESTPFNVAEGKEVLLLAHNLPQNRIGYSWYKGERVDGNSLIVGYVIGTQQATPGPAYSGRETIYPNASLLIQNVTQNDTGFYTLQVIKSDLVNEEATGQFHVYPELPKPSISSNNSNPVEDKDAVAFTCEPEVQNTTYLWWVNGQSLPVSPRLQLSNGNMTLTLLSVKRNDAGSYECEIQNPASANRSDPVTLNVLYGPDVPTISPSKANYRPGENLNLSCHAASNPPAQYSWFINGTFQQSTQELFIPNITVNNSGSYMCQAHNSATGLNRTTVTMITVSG

Regarding “Milatuzumab (hLL1, humanized anti-CD74 IgG1, unconjugated) (antibody)”, the MFI was found to be 17 in assay [1]; 156 in assay [2]; 143 in [5]; 8 in assay [6]; 248 in assay [8]; 114 in assay [12]. Also, the MFI in assay [13] is 16; in [14], 22; in assay [16], 9; in assay [19], 220; in assay [20], 5; in assay [21], 144. The MFI in [23] amounted to 59; in assay [29], 185. Moreover, the MFI Ratio hLL1:bkgd came out at 31.2 in assay [3]; 1.6 in assay [4]; 36.7 in assay [9]; 2.1 in assay [10]; 28.5 in assay [11]; 19.6 in [15]. Besides, the MFI Ratio hLL1:bkgd in assay [17] is 1.3; in assay [18] it was 1.8; in assay [22], 28.6; in assay [24], 1.5; in assay [25], 49.6; in assay [26] it was 5.3. Moreover, the MFI Ratio hLL1:bkgd turned out to be 28.8 in assay [27] and 30.8 in [28]. This molecule also had a Kd in [7] of 0.77 nM.

In turn, Milatuzumab-CL2E-SN-38 (antibody) showed a dissociation constant Kd in assay [7] of 0.8 nM.

hRS7-CL2A-SN-38 (antibody) gave a Kd in [30] of 1.2 nM.

Regarding “Epratuzumab (hLL2, humanized anti-CD22 IgG1, unconjugated) (antibody)”, the Median fluorescence is 7.7 with CD22 (human) [31]; 45.9 with CD22 (human) [32]; 22.9 with CD22 (human) [33]; 16 in the assay with CD22 (human) [34]; 145 in the assay with CD22 (human) [35]; 23.3 with CD22 (human) [36]. Further, the Median fluorescence in the assay with CD22 (human) [37] amounted to 11.2; with CD22 (human) [38], 40.8; with CD22 (human) [39] it was 10.3.

In [7], Milatuzumab-CL2A-SN-38 (antibody) came in with a Kd of 0.59 nM.

As to “hMN-15 (humanized anti-CEACAM6 IgG1, unconjugated) (antibody)”, the figures for the MFI in the assay with CEACAM6 (human) [40], in the assay with CEACAM6 (human) [41] and in the assay with CEACAM6 (human) [42] were 1120, 175 and 81, respectively.

As to “Veltuzumab (hA20, humanized anti-CD20 IgG1, unconjugated) (antibody)”, the Median fluorescence turned out to be 97.4 in the assay with CD20 (human) [43]; 422 in the assay with CD20 (human) [44]; 12.3 in the assay with CD20 (human) [45]; 6.9 in the assay with CD20 (human) [46]; 815 with CD20 (human) [47]; 3.7 with CD20 (human) [48]. For the same molecule, the Median fluorescence stood at 605 with CD20 (human) [49], 620 in the assay with CD20 (human) [50] and 21.5 in the assay with CD20 (human) [51].

B1: hRS7-CL2-SN-38 (antibody, INN chains, looked up, V domains shown, part only)
VH: QVQLQQSGSELKKPGASVKVSCKASGYTFTNYGMNWVKQAPGQGLKWMGWINTYTGEPTYTDDFKGRFAFSLDTSVSTAYLQISSLKADDTAVYFCARGGFGSSYWYFDVWGQGSLVTVSS
VL: DIQLTQSPSSLSASVGDRVSITCKASQDVSIAVAWYQQKPGKAPKLLIYSASYRYTGVPDRFSGSGSGTDFTLTISSLQPEDFAVYYCQQHYITPLTFGAGTKVEIK
modifications: SN-38 via CL2 linker
Regarding B1, the Kd in [30] is 1.2 nM.

B2: hRS7 IgG (humanized RS7 anti-Trop-2 antibody, unconjugated) (antibody, V domains shown)
VH: QVQLQQSGSELKKPGASVKVSCKASGYTFTNYGMNWVKQAPGQGLKWMGWINTYTGEPTYTDDFKGRFAFSLDTSVSTAYLQISSLKADDTAVYFCARGGFGSSYWYFDVWGQGSLVTVSS
VL: DIQLTQSPSSLSASVGDRVSITCKASQDVSIAVAWYQQKPGKAPKLLIYSASYRYTGVPDRFSGSGSGTDFTLTISSLQPEDFAVYYCQQHYITPLTFGAGTKVEIKR
As to B2, in [52], the “ADCC, specific lysis of BxPC-3 target cells by PBMCs (effector to target ratio 100:1; antibody at 33.3 nM)” value amounted to 8.5%.
